Results reported in the nanobody polyreactivity screen of Harvey et al. (2022).

assay: yeast display, Sf9 membrane polyspecificity reagent, FACS + sequencing; frameworks hold sequencing errors
How it was run: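 A synthetic nanobody library was expressed on Saccharomyces cerevisiae BJ5465 by galactose induction for 36–48 hours. The library was stained for 1 hour at 4 °C with 10% biotinylated, detergent-solubilized Sf9 membrane reagent and enriched with streptavidin microbeads before FACS. Low and high (top ~1%) gates were set on anti-HA fluorescence for expression and streptavidin fluorescence for reagent binding, and each polyreactivity label reflects the gate of origin.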

Sequence | polyreactivity (PSR sort gate)
QVQLVESGGGLVQAGGSLRLSCAASGFTFKSYAMGWYRQAPGKERELVASISRRGGSTYYADSVKGRFTISRDNAKNTVYLQMNSLKPEDTAVYYCAADKRPPYILDYWGLGTQVTVSS | high polyreactivity
QVQLVESGGGLVQAGGSLRLSCAASGFTFKSYTMAWYRHAPGKERELVANISRRGGSTYYADSVKGRFTLSRDNAKNTVYLQMNSLKPEDTAVYYCAADAYGFLDTTYRYFYWGQGSQVTVSS | high polyreactivity
QVQLVESGGGLVQAGGSLRLSCAASGFTFKVYNAMGWYRQAPGKERELVAAITSSVGGTYYADSVKGRFTISRDNAKNTFYLQMNSLKPEDTAVYYFATDGPISPYWEWPWLLYDYWGQGTQVTVSS | low polyreactivity
QVQLVESGGGLVQAGGSLRLSCAASGFTFKWYAMGWYRQAPGKERELVATITIGGRTNYADSVKGRFTISRDNAKNTVYLQMNSLKPEDTAVYCCATFFVGFRLSDYDYWGQGTQVTVSS | low polyreactivity
QVQLVESGGGLVQAGGSLRLSCAASGFTFKWYAMGWYRQAPGKERELVATITIGGRTNYADSVKGRFTISRDNAKNTVYLQMNSLKPEDTAVYYCAAESGKIVDFVWVLAYPRLDYWGQGTQVTVSS | low polyreactivity
QVQLVESGGGLVQAGGSLRLSCAASGFTFKYNAMGWYRHAPGKERELVAAISSSDGTNYADSVKGRFTISRDNAKNTVYLQMNSLKQEDTAVYYCAADYFYLEDYYYWGQGSQVTVSS | low polyreactivity
QVQLVESGGGLVQAGGSLRLSCAASGFTFKYYAMGWYRPAPRKERELVADITRSGGSTYYADSVKGRFTISRDNAKNTVYLQMNSLKPEDTAGYYCAVDPVRYPYSYDYWGQGTQVTGSS | high polyreactivity
QVQLVESGGGLVQAGGSLRLSCAASGFTFKYYAMGWYRQAPGKERELVARISWSGGSTYYADSVKGRFTISRDNAKNTFYLQMNSLKPEDTAVYYCNTDVGYGFDYWGQGTQVTVSS | high polyreactivity
QVQLVESGGGLVQAGGSLRLSCAASGFTFKYYAMGWYRQAPGKERELVARISWSGGSTYYADSVKGRFTISRDNAKNTVYLQMNSLKPEDTAVYYCAAKLYSKRTGARMNYWGQGTQVTVSS | high polyreactivity
QVQLVESGGGLVQAGGSLRLSCAASGFTFLANGMGWYRQAPGKERELVAGITKDGGSTYADSVKGRFTISRDNAKNTVYLQMNSLKPEDTAVYYCAASIFSFSGGLNNGGTRGYWGQGTQVTVSS | low polyreactivity
QVQLVESGGGLVQAGGSLRLSCAASGFTFLDYAMGWYRQAPGKERELVAAIDDSGGSTYYADSVKGRFTISRDNAKNTVYLQMNSLKPEDTAVYYCAADWYFFSQLYDYWGQGTQVTVSS | low polyreactivity
QVQLVESGGGLVQAGGSLRLSCAASGFTFLKNAMGWYRQAPGKERELVAAITSSGGRTYYADSVKGRFTISRDNAKNTVYLQMNSLKPEDTAVYYCAADHTHGYVLYYNDNYWGQGTQVTVSS | high polyreactivity
QVQLVESGGGLVQAGGSLRLSCAASGFTFLKNAMGWYRQAPGKERELVAAITSSGGRTYYADSVKGRFTISRDNAKYTVYLQMNSLKPEDTAVYYCNKGPLPGYDYWGQGNQVTVSS | high polyreactivity
QVQLVESGGGLVQAGGSLRLSCAASGFTFLKYAMGWYRQAPGKERELVAAISWSGDSTYYADSVKGRFTISRDNAKNTVYLQMNSLKPEDTAVYYCAATYSFYGYYYWGQGTQVTVSS | high polyreactivity
QVQLVESGGGLVQAGGSLRLSCAASGFTFLPYVMGWYRQAPGKERELVAAMSSSGGSTYYADSVKGRFTISRDNAKNTVYLQMNSLKPEDTAVYYCAKDIGVRRRDFEDYEYWGQGTQVTVSS | low polyreactivity
QVQLVESGGGLVQAGGSLRLSCAASGFTFLRYAMGWYRQAPGKERELVAAITGGGNTNYADSVKGRFTISRDNAKNTVYLQMNSLKPEDTAVYYCNARRRYWPYREDYWGQGTQVTVSS | high polyreactivity
QVQLVESGGGLVQAGGSLRLSCAASGFTFLRYAMGWYRQAPGKERELVAAITRGGTTYYADSVKGRFTISRDNAKNTVYLQMNSLKPEDTAVYYCNTLTSYTRYNYWGQGTQVTVSS | high polyreactivity
